Laboratory results reported in patent US11147834B2 (MiZ Company Limited, priority 2018, dated 2021).

Key:
[1] = test system: (wet) age-related macular degeneration; assay: Case of a patient with (wet) age-related macular degeneration: hydrogen aspiration and hydrogen water, Lucentis and laser therapy; assay type: in vivo, human
Protocol: A patient felt itchiness on the left eye in September 2013, took their glasses off, and covered their left eye.
Lucentis (R) was injected in the vitreous body of the patient and the patient received laser therapy after 1 week. After additional 1 month, Lucentis (R) was re-injected.
After 10 months, the injection was discontinued and only a test was continued. Thereafter, the patient visited the hospital once in three months and their pathological conditions were checked by a test.
Then, the patient received the second laser therapy, and Lucentis (R) injection approximately once a month.
The doctor recommended that the patient receive another laser therapy if the result of injection in February was bad.
After that, the patient received Lucentis (R) injection. One week after the injection, detailed fundus examination was conducted to check their pathological conditions.
Then, the patient daily drank 500 ml/morning and 500 ml/night of the water for 1 month.
When the patient received Lucentis (R) injection on Apr. 11, 2018, their pathological conditions were checked. […] However, after one week, the patient was re-examined.

[2] = compared with H2; cited from earlier work

## [HH] [hydrogen, molecular hydrogen]
[1]; after aspirating hydrogen and drinking hydrogen water, improved from 0.1
  visual acuity of the eye with age-related macular degeneration: 1.2
[1]; gaseous hydrogen about 4% by volume aspirated about 2 hours x 3 (7-day interval), February 2018, then Lucentis injection, examined one week after the injection
  choroidal neovascularization (detailed fundus examination): degeneration

## [2H][2H] [D2, deuterium]
[2]
  superoxide-scavenging action: stronger superoxide-scavenging action than H2

B1: ranibizumab (antibody, chains of the INN, looked up, V domains shown)
VH: EVQLVESGGGLVQPGGSLRLSCAASGYDFTHYGMNWVRQAPGKGLEWVGWINTYTGEPTYAADFKRRFTFSLDTSKSTAYLQMNSLRAEDTAVYYCAKYPYYYGTSHWYFDVWGQGTLVTVSS
VL: DIQLTQSPSSLSASVGDRVTITCSASQDISNYLNWYQQKPGKAPKVLIYFTSSLHSGVPSRFSGSGSGTDFTLTISSLQPEDFATYYCQQYSTVPWTFGQGTKVEIK
modifications: Fab
notes: an anti-VEGF drug, ranibizumab; Novartis Pharma K. K
[1]; during three years before initiation of hydrogen gas inhalation
  effects of laser therapy and Lucentis injection: no effects
[1]; first course: intravitreal injection, laser therapy after 1 week, re-injection after additional 1 month
  therapeutic effect: therapeutic effect appeared
[1]; injection in January 2018
  test result after injection: very bad
[1]; same treatment repeated two years later after worsening
  treatment outcome: not good
